Several values for one entry are separate records, joined by “and”; a condition that tells them apart may be missing. Equal values may be shown once.

The target of experiment [1] is human T cell receptor with β chain variable region Vβ 5.2, on HPB-ALL cells (human). Kind of experiment: flow cytometry on HPB cells, TM27 purified from CHO cells.
Experiment [2] shares this target. Put plainly: 4H11-FITC competition assay, competitor label 4H11-FITC (cells not stated in the example).
Experiment [3] has the same target. Kind of experiment: flow cytometry on HPB cells, TM27 purified from NSO cells. Background: In flow cytometry, cells or beads pass a laser one at a time.

B1: TM27 (antibody, V domains shown)
VH: QVQLQESGPGLVRPSQTLSLTCTVSGFSLTAYGVNWVRQPPGRGLEWLGMIWGDGNTDYNSALKSRVTMLKDTSKNQFSLRLSSVTAADTAVYYCARDRVTATLYAMDYWGQGSLVTVSS
VL: DIQMTQSPSSLSASVGDRVTITCSASQGISNYLNWYQQTPGKAPKLLIYYTSSLHSGVPSRFSGSGSGTDYTFTISSLQPEDIATYYCQQYSKLPRTFGQGTKLQIT
With B1, the mean channel fluorescence in experiment [1] is 283 and 322; in experiment [3] it was 507. Further, the value in the 4H11-FITC competition assay, fold against TM23 in experiment [2] is below 3 fold.

B2: TM27I (antibody, V domains shown)
VH: QVQLQESGPGLVRPSQTLSLTCTVSGFSLTAYGVNWVRQPPGRGLEWIGMIWGDGNTDYNSALKSRVTMLKDTSKNQFSLRLSSVTAADTAVYYCARDRVTATLYAMDYWGQGSLVTVSS
VL: DIQMTQSPSSLSASVGDRVTITCSASQGISNYLNWYQQTPGKAPKLLIYYTSSLHSGVPSRFSGSGSGTDYTFTISSLQPEDIATYYCQQYSKLPRTFGQGTKLQIT
The molecule B2 gave a value in the 4H11-FITC competition assay, fold against TM23 in experiment [2] below 3 fold.

The record behind these values is US5861155.
